# T1: rat IL-25 expressed with a C-terminal myc-myc-hexahistidine tag (rat)
# T1 construct: also called Rat IL-25-MMH
# T1 chain: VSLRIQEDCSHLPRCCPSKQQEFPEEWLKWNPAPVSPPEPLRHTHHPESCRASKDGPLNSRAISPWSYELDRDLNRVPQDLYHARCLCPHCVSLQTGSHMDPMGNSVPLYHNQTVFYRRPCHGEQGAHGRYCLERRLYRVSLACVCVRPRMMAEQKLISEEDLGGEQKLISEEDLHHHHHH
# T2: mouse IL-25 expressed with a C-terminal myc-myc-hexahistidine tag (mouse)
# T2 construct: also called Mouse IL-25-MMH; mIL-25-MMH
# T2 chain: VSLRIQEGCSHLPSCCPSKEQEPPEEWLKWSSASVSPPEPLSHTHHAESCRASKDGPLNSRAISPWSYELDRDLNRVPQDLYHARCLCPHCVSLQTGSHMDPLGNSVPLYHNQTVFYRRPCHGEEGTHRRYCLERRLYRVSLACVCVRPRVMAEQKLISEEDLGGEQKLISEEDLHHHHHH
# T3: monkey IL-25 expressed with a C-terminal myc-myc-hexahistidine tag (M. fascicularis (cynomolgus monkey))
# T3 chain: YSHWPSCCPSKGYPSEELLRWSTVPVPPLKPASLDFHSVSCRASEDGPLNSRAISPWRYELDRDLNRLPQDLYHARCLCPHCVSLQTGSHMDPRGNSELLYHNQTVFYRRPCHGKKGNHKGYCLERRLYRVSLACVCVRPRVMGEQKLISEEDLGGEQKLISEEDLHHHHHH
# T4: human IL-25 expressed with a C-terminal myc-myc-hexahistidine tag (human)
# T4 chain: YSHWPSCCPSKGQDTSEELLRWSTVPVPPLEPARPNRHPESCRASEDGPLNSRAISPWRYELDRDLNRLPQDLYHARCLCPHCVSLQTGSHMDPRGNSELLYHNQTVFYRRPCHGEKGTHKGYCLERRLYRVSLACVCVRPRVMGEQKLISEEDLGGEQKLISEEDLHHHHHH
# Assays:
# [1] = target: T1, rat IL-25 expressed with a C-terminal …; test: SPR Biacore, antibody captured, 37C;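 as to 100 nM Monkey IL-25-MMH Bound (RU): biacore 4000 surface plasmon resonance biosensor measuring binding of IL-25-MMH to purified anti-IL-25 antibodies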;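 as to 100 nM Mouse IL-25-MMH Bound (RU): Real-time sensorgrams of IL-25-MMH binding to purified anti-IL-25 antibodies, rate constants obtained by fitting a 1:1 binding model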
# Method: (§1) Equilibrium dissociation constants (KD values) for IL-25 binding to purified anti-IL-25 antibodies were determined using a real-time surface plasmon resonance biosensor assay on a Biacore 4000 instrument (GE Healthcare). […] All the IL-25 reagents were expressed with a C-terminal myc-myc-hexahistidine tag (referred to herein as “IL-25-MMH”). […] Kinetic association (kₐ) and dissociation (kd) rate constants were determined by fitting the real-time sensorgrams to a 1:1 binding model using Scrubber 2.0c curve fitting software.
# [2] = target: T2, mouse IL-25 expressed with a C-terminal …; test: SPR Biacore, antibody captured, 25C;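 as to 100 nM Rat IL-25-MMH Bound (RU): purified anti-IL-25 antibodies were tested by real-time surface plasmon resonance on a Biacore 4000, with rate constants obtained from sensorgram fits to a 1:1 binding model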
# Method: as §1
# [3] = target: T3, monkey IL-25 expressed with a …; test: cell-based or functional assay
# [4] = target: T4, human IL-25 expressed with a C-terminal …; test: cell-based or functional assay
# [5] = target: T3, monkey IL-25 expressed with a …; test: SPR Biacore, antibody captured, 37C;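 as to 100 nM Monkey IL-25-MMH Bound (RU): biacore 4000 surface plasmon resonance biosensor measuring binding of IL-25-MMH to purified anti-IL-25 antibodies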;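 as to 100 nM Mouse IL-25-MMH Bound (RU): Real-time sensorgrams of IL-25-MMH binding to purified anti-IL-25 antibodies, rate constants obtained by fitting a 1:1 binding model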
# [6] = target: T1, rat IL-25 expressed with a C-terminal …; test: SPR Biacore, antibody captured, 25C;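 as to 100 nM Rat IL-25-MMH Bound (RU): purified anti-IL-25 antibodies were tested by real-time surface plasmon resonance on a Biacore 4000, with rate constants obtained from sensorgram fits to a 1:1 binding model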
# Method: as §1
# [7] = target: T2, mouse IL-25 expressed with a C-terminal …; test: SPR Biacore, antibody captured, 37C;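 as to 100 nM Monkey IL-25-MMH Bound (RU): biacore 4000 surface plasmon resonance biosensor measuring binding of IL-25-MMH to purified anti-IL-25 antibodies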;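 as to 100 nM Mouse IL-25-MMH Bound (RU): Real-time sensorgrams of IL-25-MMH binding to purified anti-IL-25 antibodies, rate constants obtained by fitting a 1:1 binding model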
# Method: as §1
# [8] = target: T4, human IL-25 expressed with a C-terminal …; test: BLI Octet, hIL-25-MMH captured on anti-Penta-His sensor, 25C
# Method: Binding competition between anti-IL-25 monoclonal antibodies was determined using a real time, label-free bio-layer interferometry assay on an Octet QK384 biosensor (Pall ForteBio Corp.).
# The biosensors were washed in HBST kinetics buffer in between every step of the experiment. The real-time binding response was monitored during the course of the experiment and the binding response at the end of every step was recorded.
# [9] = target: T4, human IL-25 expressed with a C-terminal …; test: competition ELISA, 2 nM hIL-25-MMH binding to coated hIL-17RB-hFc; (*) below theoretical bottom of the assay
# Method: (§2) Data analysis was performed using a sigmoidal dose-response model within Prism™ software (GraphPad). […] The absorbance values of the wells containing the highest concentration for each antibody were used to determine the percent maximum blockade.
# [10] = target: T4, human IL-25 expressed with a C-terminal …; test: competition ELISA, 2 nM hIL-25-MMH binding to coated hIL-17RB-hFc
# Method: as §2
100 nM Rat IL-25-MMH Bound (RU) [1],100 nM Mouse IL-25-MMH Bound (RU) [2],binding result [2],"IC50, luciferase reporter cells, 12 pM MfIL-25-MMH [3]","IC50, luciferase reporter cells, 5 pM hIL-25-MMH [4]",100 nM Monkey IL-25-MMH Bound (RU) [5],Kd [5],koff [5],kon [5],t½ [5],100 nM Rat IL-25-MMH Bound (RU) [6],binding result [6],100 nM Mouse IL-25-MMH Bound (RU) [7],50 ug/mL mAb-1 Binding (nm) [8],IC50 [9],% Maximum blocking of 200 nM antibody [10],Binder,also measured
2 RU,0 RU,no binding (tested: 100 nM),6e-11 M,1.4e-10 M,66 RU,0.0374 nM,6.59e-05 s⁻¹,1.76e+06 M⁻¹ s⁻¹,2.92 h,1 RU,no binding (tested: 100 nM),1 RU,1.03 nm,0.24 nM,91%,"H4H10903P (antibody, human IgG4, V domains shown, H4H prefix = human IgG4 Fc) VH: QVQLQESGPGLVKPSETLSLTCTVSGGSINSYSWTWIRQPPGKGLEWIGNIYNSENTNYNPSLKSRVTISVDTSKSQVSLKLNSVTAADTAVYYCARTYNWNYEIGAMGVWGQGTTVTVSS VL: not shown",–
0 RU,0 RU,–,3.9e-11 M,1.4e-10 M,72 RU,0.0239 nM,4.18e-05 s⁻¹,1.75e+06 M⁻¹ s⁻¹,4.6 h,0 RU,–,1 RU,0.7 nm,0.2 nM,93%,"H4H10883P (antibody, human IgG4, V domains shown, H4H prefix = human IgG4 Fc) VH: QVQLQESGPGLVKSSETLSLTCTVSGGSISSYYWSWIRQPPGKGLEWIGFIYYSGSTNYNPSLKSRVTFSVDTSKNHFSLKLNSVTATDTAVYYCARHYFDSGTYELGPFDYWGQGTLVTVSS VL: DIVMTQSPDSLAVSLGERATINCKSSQNILLTSSNKNYLTWYQQKPGQPPKLLIYWASIRESGVPDRFSGSGSGTDFTLTISSLQAEDVALYFCQQYYITPFTFGPGTKVDIK",–
2 RU,0 RU,no binding (tested: 100 nM),3.7e-11 M,6.3e-11 M,61 RU,0.0236 nM,7.14e-05 s⁻¹,3.03e+06 M⁻¹ s⁻¹,2.7 h,0 RU,no binding (tested: 100 nM),2 RU,0.88 nm,0.2 nM,92%,"H4H10861P (antibody, human IgG4, V domains shown, H4H prefix = human IgG4 Fc) VH: QVQLQESGPGLVKPSETLSLTCTVSGASISNYYWSWIRQPPGKGLEWIGYIFYSGNTNYNPSLKSRVTISVDTSKNQFSLKLSSVTAADTAVYYCARVRFSDYELNWFDPWGQGTLVTVSS VL: DIVMTQSPDSLAVFLGERATINCRSSQSVFLGSNNKNYLAWYQQKPGQPPKLLIYWASSRESGVPDRFSGSGSGTDFTLTINSLQAEDVAVYYCQQYFITPLTFGGGTKVEIK",–
3 RU,1 RU,no binding (tested: 100 nM),4.7e-11 M,–,73 RU,0.0431 nM,0.00013 s⁻¹,3.01e+06 M⁻¹ s⁻¹,1.48 h,2 RU,no binding (tested: 100 nM),2 RU,0.88 nm,0.14 nM,89%,"H4H10906P (antibody, human IgG4, V domains shown, H4H prefix = human IgG4 Fc) VH: QVQLQESGPGLVKPSETLSLTCTVSGGSISSYYWSWIRQPPGKGLEWIGFIYYSGSTNYNPSLKSRVTISVDTSKNQFSLKLSSVTAADTAVYYCARHDSDYELYGMDVWGQGTTVTVSS VL: not shown","IC50, luciferase reporter cells, 5 pM hIL-25-MMH (second assay day) [4]: 2.7e-11 M"
20 RU,17 RU,–,–,–,–,–,–,–,–,18 RU,–,27 RU,1.38 nm,–,70%,"H2aM10690N (antibody, V domains shown, also called H2M10690N) VH: QVQLVQSGAEVKKPGASVKVSCKASGYTFTSYGISWVRQAPGQGLEWMGWISAYNGNTNYAQKLQGRVTMTTDTSTSTAYMELRSLRSDDTAVYYCARVPITGTTWFDPWGQGTLVTVSS VL: not shown",Kd [1]: 115 nM; koff [1]: 0.0193 s⁻¹; kon [1]: 168000 M⁻¹ s⁻¹; t½ [1]: 36 s; Kd [2]: 82.3 nM; koff [2]: 0.00319 s⁻¹; kon [2]: 38800 M⁻¹ s⁻¹; t½ [2]: 4 min; Kd [6]: 103 nM; koff [6]: 0.0095 s⁻¹; kon [6]: 91800 M⁻¹ s⁻¹; t½ [6]: 1.2 min; Kd [7]: 81.7 nM; koff [7]: 0.00778 s⁻¹; kon [7]: 95300 M⁻¹ s⁻¹; t½ [7]: 1.5 min; IC50 [10]: 31 nM

# Further lines, the binder ahead of its results:
Binder,100 nM Rat IL-25-MMH Bound (RU) [1],100 nM Mouse IL-25-MMH Bound (RU) [2],binding result [2],"IC50, luciferase reporter cells, 12 pM MfIL-25-MMH [3]","IC50, luciferase reporter cells, 5 pM hIL-25-MMH [4]",100 nM Monkey IL-25-MMH Bound (RU) [5],Kd [5],koff [5],kon [5],t½ [5],100 nM Rat IL-25-MMH Bound (RU) [6],binding result [6],100 nM Mouse IL-25-MMH Bound (RU) [7],50 ug/mL mAb-1 Binding (nm) [8],IC50 [9],% Maximum blocking of 200 nM antibody [10],also measured
"H2aM11008N (antibody, V domains shown, also called H2M11008N) VH: QVQLQESGPGLVKPSETLSLTCTVSGGSISSHYWSWIRQPPGKGLEWIGFIYYSGSTNFNPSLKSRVTISIDTSKNQFSLKLSSVTAADTAVYYCARHDYNDYELNYFDLWGRGTLASVSS VL: not shown",3 RU,-1 RU,–,–,1.8e-09 M,–,–,–,–,–,0 RU,no binding (tested: 100 nM),2 RU,0.81 nm,0.43 nM,98%,–
"H4H10862P (antibody, human IgG4, V domains shown, H4H prefix = human IgG4 Fc) VH: QVQLQESGPGLVKPSETLSLTCTVSGGSISSYFWSWIRQAPGKGLEWIGFIDYSGSTNYNPSLKSRVTISVDTSKNQFSLKLNSVTAADTAVYYCARQEIINFELNWFDPWGQGTLVTVSS VL: not shown",1 RU,0 RU,no binding (tested: 100 nM),3.3e-11 M,8.4e-11 M,70 RU,0.0589 nM,0.000172 s⁻¹,2.93e+06 M⁻¹ s⁻¹,1.12 h,1 RU,no binding (tested: 100 nM),2 RU,0.83 nm,0.24 nM,89%,–
"H4H10901P (antibody, human IgG4, V domains shown, H4H prefix = human IgG4 Fc) VH: QLQLQESGPGLVRPSETLSLTCSVSSGSIRSSNYYWGWIRQPPGKGLEWIGNIYYSGNTFYNPSLKGRVTISVDTSKNQFSLKLSSVTATDTAVYYCARQGYSDYELNWFDPWGQGTLVTVSS VL: DIVMTQSPDSLVLSLGERATFNCKSSQSVLDSSNNKNYLAWYQQKPGQPPKLLIYWASTRESGVPDRFSGSGSGTDFSLTISSLQAEDVALYYCQQFYNSPWTFGQGTKVEIK",1 RU,1 RU,no binding (tested: 100 nM),3.8e-11 M,5.6e-11 M,64 RU,0.0464 nM,0.000165 s⁻¹,3.55e+06 M⁻¹ s⁻¹,1.17 h,0 RU,no binding (tested: 100 nM),2 RU,0.67 nm,0.23 nM,91%,–
"H1M11009N (antibody, mouse IgG1, V domains shown, H1M prefix = mouse IgG1 Fc) VH: EVQLVESGGGLVEPGGSLRLSCVASGFTFSNAWMNWVRQAPGKGLEWVGHIERKTDGGTTDFAAPVKGRFTISRDDSKNTLYLQMNSLKTEDTAVYYCTTVGPYSVPFDYWGQGTLVTVSS VL: not shown",3 RU,0 RU,no binding (tested: 100 nM),–,–,–,–,–,–,–,-1 RU,–,2 RU,1.42 nm,–,–,–

# Source: patent publication US20160083466A1 (Regeneron, published 2016)
